What was measured:
[1] = biological target: Rev (Human immunodeficiency virus 1) (UniProt P04325); assay: fluorescence; conditions: cited from earlier work
[2] = biological target: the molecule itself; assay: single-molecule TIRF fluorescence microscopy

Sequence of DDX1 (Q92499 whole entry): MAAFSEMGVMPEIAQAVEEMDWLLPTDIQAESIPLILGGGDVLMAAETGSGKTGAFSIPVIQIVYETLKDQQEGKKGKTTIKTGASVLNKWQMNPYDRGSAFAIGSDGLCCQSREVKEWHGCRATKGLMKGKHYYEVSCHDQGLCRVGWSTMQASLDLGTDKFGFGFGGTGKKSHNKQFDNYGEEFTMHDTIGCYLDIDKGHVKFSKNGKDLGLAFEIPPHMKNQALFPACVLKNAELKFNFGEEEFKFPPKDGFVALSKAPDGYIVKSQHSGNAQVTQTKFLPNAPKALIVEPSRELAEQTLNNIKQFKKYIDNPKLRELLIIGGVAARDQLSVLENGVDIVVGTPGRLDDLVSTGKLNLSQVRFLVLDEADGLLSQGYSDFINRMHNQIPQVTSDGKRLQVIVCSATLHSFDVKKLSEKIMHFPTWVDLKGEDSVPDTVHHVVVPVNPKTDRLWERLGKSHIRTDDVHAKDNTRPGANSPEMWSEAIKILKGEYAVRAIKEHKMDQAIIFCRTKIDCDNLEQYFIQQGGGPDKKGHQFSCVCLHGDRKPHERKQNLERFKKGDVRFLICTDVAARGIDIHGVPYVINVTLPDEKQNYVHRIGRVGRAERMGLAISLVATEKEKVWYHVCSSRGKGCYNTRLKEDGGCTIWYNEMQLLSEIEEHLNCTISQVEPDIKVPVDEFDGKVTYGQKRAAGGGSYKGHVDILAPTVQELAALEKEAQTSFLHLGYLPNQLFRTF

| Molecule | Kd [1] | Kd [2] | stoichiometry N [2] |
| --- | --- | --- | --- |
| DDX1 (from UniProt Q92499) | 36 nM |  |  |
| HIV-1 Rev (recombinant construct with N-terminal extension, both native cysteines changed to serine, labeled with Alexa-Fluor 555) (natural protein) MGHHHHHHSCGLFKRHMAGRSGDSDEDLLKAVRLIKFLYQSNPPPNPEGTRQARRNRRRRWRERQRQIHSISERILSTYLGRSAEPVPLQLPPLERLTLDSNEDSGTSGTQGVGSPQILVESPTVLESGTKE |  | ~1.5 nM | ≤ 8 Rev monomers on one RRE |

Source: PMC3140434 (Journal of molecular biology, 2011)
